Measured values as given in publication PMC12579213 (2025).

Legend:
Experiment in all cases: BLI
GST-tagged Rac1 (Q61L) [1] = target: T1, GST-tagged Rac1 (Q61L) (UniProt P63000 1-192, Q61L)
GST-tagged RhoA (Q63L) [2] = target: T2, GST-tagged RhoA (Q63L) (UniProt P61586 1-193, Q63L)
[3] = target: T3, GST-tagged Rac1F37W (Q61L) (UniProt P63000 1-192, F37W | Q61L)
GST-tagged Rac1 (Q61L) [4] = target: T1, GST-tagged Rac1 (Q61L); remark: listed apart in the source
GST-tagged RhoA (Q63L) [5] = target: T2, GST-tagged RhoA (Q63L); remark: listed apart in the source
[6] = target: T3, GST-tagged Rac1F37W (Q61L); remark: listed apart in the source

B1: 6xHis-tagged RBD_(ROCK1) (domain or fragment)
chain: KDHTVSRLEEANSMLTKDIEILRRENEELTEKMKKAEEEYKLEKEEEISNLKAAFEKNINTERTLKTQAVNKLAEIMNRKDF
GST-tagged Rac1 (Q61L) [1]
  Kd: 56 nM
GST-tagged RhoA (Q63L) [2]
  Kd: 31 nM
[3]
  Kd: 179 nM
GST-tagged Rac1 (Q61L) [4]
  koff: 0.00156 s⁻¹
GST-tagged RhoA (Q63L) [5]
  koff: 0.000699 s⁻¹
[6]
  koff: 0.00474 s⁻¹
